Data: patent publication US20040014149A1 (RIGEL PHARMACEUTICALS, published 2004)
Ends that are not written are not given here.

T1: human thioredoxin-like 32 kDa protein (hTXNL) (human, UniProt O43396 1-289, limits assumed)
T1 sequence: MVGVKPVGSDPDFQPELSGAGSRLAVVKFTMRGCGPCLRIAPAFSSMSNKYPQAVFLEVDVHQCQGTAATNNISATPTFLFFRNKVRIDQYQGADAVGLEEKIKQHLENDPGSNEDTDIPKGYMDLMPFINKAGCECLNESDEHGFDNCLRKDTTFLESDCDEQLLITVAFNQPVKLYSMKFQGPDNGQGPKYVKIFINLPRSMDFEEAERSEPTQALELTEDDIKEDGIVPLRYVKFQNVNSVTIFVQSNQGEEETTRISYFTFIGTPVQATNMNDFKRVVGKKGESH


Key:
[1] = molecular target: T1, human thioredoxin-like 32 kDa protein …; assay: cell-based or functional assay
[2] = molecular target: T1, human thioredoxin-like 32 kDa protein …; assay: cell-based or functional assay; remark: listed apart in the source

| Binder | endogenous epsilon inhibition ratio (TAQMAN quantitative PCR) [1] | reporter ratio (original library clone, +IL-4/+Dox to +IL-4/-Dox GFP) [1] | Reporter Ratio (A5T4 germline epsilon promoter GFP reporter line) [2] |
| --- | --- | --- | --- |
| PERCYMRMPPQSLADAQIYS (peptide, not shown: large carriers, also: expressed as BFP-linker-peptide fusion, construct not described) [peptide DR15wt] | 1.56 | 1.43 | 1.69 |
| AARCYMRMPPQSLADAQIYS (peptide, not shown: large carriers) [peptide DR15PE] |  |  | 2.22 |
| PERCAARMPPQSLADAQIYS (peptide, not shown: large carriers) [peptide DR15YM] |  |  | 1.22 |
| PERCYMRMPPQSLADAAAYS (peptide, not shown: large carriers) [peptide DR15QI] |  |  | 1.35 |
